In the supplement of paper PMC6755084:

B1: minF1; the commonest letter at each place (parent)
chain: GAGACCGCAACTGAAAAGTTGTTATCAGAAATGGATGGGTTGAATTTCTGCACGTAGAAGCAAAAGGC

Variants of: B1
Test: fraction ligated after 30 min (ligated reads / total reads); higher = more ligase activity
Conditions: with F1*subA RNA substrate (template-directed ligation), 42 °C
Experimental: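 Chip-synthesised pool of minF1 ligase ribozyme variants (single and double substitutions, single to quadruple deletions, bulge and P2 designed variants) was transcribed with T7 and reacted as a pool with excess substrate F1*subA for 30 min at 42 C in 50 mM EPPS pH 8.5, 25 mM MgCl2. Ligated and unligated RNAs were separated by PAGE, barcoded by RT and deep sequenced; fraction ligated = ligated reads / total reads, relative activity = FL / FL of wild-type minF1 (0.76); sequencing FL correlated with PAGE (R2 = 0.98). Sequences are the DNA template of the ribozyme.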

Variant	fraction ligated
GAGACCGCAACTGAAAAGTTGTGATCAGAAAAGGATGGGTTGAATTTCTGCACGTAGAAGCAAAAGGC [T23G T32A]	0.084
GAGACCGCAACTGAAAAGTTGTGATCAGAAACGGATGGGTTGAATTTCTGCACGTAGAAGCAAAAGGC [T23G T32C]	0.00942
GAGACCGCAACTGAAAAGTTGTGATCAGAAAGGGATGGGTTGAATTTCTGCACGTAGAAGCAAAAGGC [T23G T32G]	0.0266
GAGACCGCAACTGAAAAGTTGTTCTCAGAAATGGTTGGGTTGAATTTCTGCACGTAGAAGCAAAAGGC [A24C A35T]	0.00376
GAGACCGCAACTGAAAAGTTGTTCTCAGAAATGGCTGGGTTGAATTTCTGCACGTAGAAGCAAAAGGC [A24C A35C]	0.00154
GAGACCGCAACTGAAAAGTTGTTCTCAGAAATGGGTGGGTTGAATTTCTGCACGTAGAAGCAAAAGGC [A24C A35G]	0.00404
GAGACCGCAACTGAAAAGTTGTGTTCAGAAATGGATGGGTTGAATTTCTGCACGTAGAAGCAAAAGGC [T23G A24T]	0.104
GAGACCGCAACTGAAAAGTTGTGCTCAGAAATGGATGGGTTGAATTTCTGCACGTAGAAGCAAAAGGC [T23G A24C]	0.0996
GAGACCGCAACTGAAAAGTTGTGGTCAGAAATGGATGGGTTGAATTTCTGCACGTAGAAGCAAAAGGC [T23G A24G]	0.00157
GAGACCGCAACTGAAAAGTTGTTCTGAGAAATGGATGGGTTGAATTTCTGCACGTAGAAGCAAAAGGC [A24C C26G]	0.032
GAGACCGCAACTGAAAAGTTGTTCTAAGAAATGGATGGGTTGAATTTCTGCACGTAGAAGCAAAAGGC [A24C C26A]	0.0482
GAGACCGCAACTGAAAAGTTGTGATCAGAAATGGATGGGTTGAGTTTCTGCACGTAGAAGCAAAAGGC [T23G A44G]	0.764
GAGACCGCAACTGAAAAGTTGTGATCAGAAATGGATGGGTTGATTTTCTGCACGTAGAAGCAAAAGGC [T23G A44T]	0.792
GAGACCGCAACTGAAAAGTTGTGATCAGAAATGGATGGGTTGACTTTCTGCACGTAGAAGCAAAAGGC [T23G A44C]	0.693
GAGACCGCAACTGAAAAGTTGTGATCATAAATGGATGGGTTGAATTTCTGCACGTAGAAGCAAAAGGC [T23G G28T]	0.803
GAGACCGCAACTGAAAAGTTGTGATCACAAATGGATGGGTTGAATTTCTGCACGTAGAAGCAAAAGGC [T23G G28C]	0.8
GAGACCGCAACTGAAAAGTTGTGATCAAAAATGGATGGGTTGAATTTCTGCACGTAGAAGCAAAAGGC [T23G G28A]	0.798
GAGACCGCAACTGAAAAGTTGTGATCAGAACTGGATGGGTTGAATTTCTGCACGTAGAAGCAAAAGGC [T23G A31C]	0.783
GAGACCGCAACTGAAAAGTTGTGATCAGAATTGGATGGGTTGAATTTCTGCACGTAGAAGCAAAAGGC [T23G A31T]	0.826
GAGACCGCAACTGAAAAGTTGTGATCAGAAGTGGATGGGTTGAATTTCTGCACGTAGAAGCAAAAGGC [T23G A31G]	0.82
GAGACCGCAACTGAAAAGTTGTTCTCAGAAATGGATGGGTTGGATTTCTGCACGTAGAAGCAAAAGGC [A24C A43G]	0.00364
GAGACCGCAACTGAAAAGTTGTTCTCAGAAATGGATGGGTTGCATTTCTGCACGTAGAAGCAAAAGGC [A24C A43C]	0.0036
GAGACCGCAACTGAAAAGTTGTTCTCAGAAATGGATGGGTTGTATTTCTGCACGTAGAAGCAAAAGGC [A24C A43T]	0.0035
GAGACCGCAACTGAAAAGTTGTGATCAGAAATGGAAGGGTTGAATTTCTGCACGTAGAAGCAAAAGGC [T23G T36A]	0.0286
GAGACCGCAACTGAAAAGTTGTGATCAGAAATGGACGGGTTGAATTTCTGCACGTAGAAGCAAAAGGC [T23G T36C]	0.0436
GAGACCGCAACTGAAAAGTTGTGATCAGAAATGGAGGGGTTGAATTTCTGCACGTAGAAGCAAAAGGC [T23G T36G]	0.061
GAGACCGCAACTGAAAAGTTGTGATCAGAAATGGATAGGTTGAATTTCTGCACGTAGAAGCAAAAGGC [T23G G37A]	0.00471

Variant	fraction ligated
GAGACCGCAACTGAAAAGTTGTGATCAGAAATGGATTGGTTGAATTTCTGCACGTAGAAGCAAAAGGC [T23G G37T]	0.00959
GAGACCGCAACTGAAAAGTTGTGATCAGAAATGGATCGGTTGAATTTCTGCACGTAGAAGCAAAAGGC [T23G G37C]	0.00547
GAGACCGCAACTGAAAAGTTGTTCTCAGATATGGATGGGTTGAATTTCTGCACGTAGAAGCAAAAGGC [A24C A30T]	0.0451
GAGACCGCAACTGAAAAGTTGTTCTCAGAGATGGATGGGTTGAATTTCTGCACGTAGAAGCAAAAGGC [A24C A30G]	0.0241
GAGACCGCAACTGAAAAGTTGTTCTCAGACATGGATGGGTTGAATTTCTGCACGTAGAAGCAAAAGGC [A24C A30C]	0.034
GAGACCGCAACTGAAAAGTTGTGATCAGAAATGGATGGGTTGAATTTCTGCACGTAGAAGCAAAAGGC [T23G]	0.8
GAGACCGCAACTGAAAAGTTGTGATCAGAAATGGATGGGTTGTATTTCTGCACGTAGAAGCAAAAGGC [T23G A43T]	0.0898
GAGACCGCAACTGAAAAGTTGTGATCAGAAATGGATGGGTTGCATTTCTGCACGTAGAAGCAAAAGGC [T23G A43C]	0.0643
GAGACCGCAACTGAAAAGTTGTGATCAGAAATGGATGGGTTGGATTTCTGCACGTAGAAGCAAAAGGC [T23G A43G]	0.0673
GAGACCGCAACTGAAAAGTTGTGATCGGAAATGGATGGGTTGAATTTCTGCACGTAGAAGCAAAAGGC [T23G A27G]	0.795
GAGACCGCAACTGAAAAGTTGTGATCTGAAATGGATGGGTTGAATTTCTGCACGTAGAAGCAAAAGGC [T23G A27T]	0.805
GAGACCGCAACTGAAAAGTTGTGATCCGAAATGGATGGGTTGAATTTCTGCACGTAGAAGCAAAAGGC [T23G A27C]	0.714
GAGACCGCAACTGAAAAGTTGTTCTCAGAAATGGATGGGTTGAATTTCTGCACGTAGAAGCAAAAGGC [A24C]	0.025
GAGACCGCAACTGAAAAGTTGTGATCAGAAATGGTTGGGTTGAATTTCTGCACGTAGAAGCAAAAGGC [T23G A35T]	0.031
GAGACCGCAACTGAAAAGTTGTGATCAGAAATGGCTGGGTTGAATTTCTGCACGTAGAAGCAAAAGGC [T23G A35C]	0.0185
GAGACCGCAACTGAAAAGTTGTGATCAGAAATGGGTGGGTTGAATTTCTGCACGTAGAAGCAAAAGGC [T23G A35G]	0.247
GAGACCGCAACTGAAAAGTTGTCATCAGAAATGGAAGGGTTGAATTTCTGCACGTAGAAGCAAAAGGC [T23C T36A]	0.0123
GAGACCGCAACTGAAAAGTTGTCATCAGAAATGGAGGGGTTGAATTTCTGCACGTAGAAGCAAAAGGC [T23C T36G]	0.0318
GAGACCGCAACTGAAAAGTTGTCATCAGAAATGGACGGGTTGAATTTCTGCACGTAGAAGCAAAAGGC [T23C T36C]	0.00904
GAGACCGCAACTGAAAAGTTGTGATCAGGAATGGATGGGTTGAATTTCTGCACGTAGAAGCAAAAGGC [T23G A29G]	0.813
GAGACCGCAACTGAAAAGTTGTGATCAGTAATGGATGGGTTGAATTTCTGCACGTAGAAGCAAAAGGC [T23G A29T]	0.803
GAGACCGCAACTGAAAAGTTGTGATCAGCAATGGATGGGTTGAATTTCTGCACGTAGAAGCAAAAGGC [T23G A29C]	0.824
GAGACCGCAACTGAAAAGTTGTTCTCAGAAATGGATGGGTTGAGTTTCTGCACGTAGAAGCAAAAGGC [A24C A44G]	0.00645
GAGACCGCAACTGAAAAGTTGTTCTCAGAAATGGATGGGTTGATTTTCTGCACGTAGAAGCAAAAGGC [A24C A44T]	0.0123
GAGACCGCAACTGAAAAGTTGTTCTCAGAAATGGATGGGTTGACTTTCTGCACGTAGAAGCAAAAGGC [A24C A44C]	0.00359
GAGACCGCAACTGAAAAGTTGTTCTCAGAAGTGGATGGGTTGAATTTCTGCACGTAGAAGCAAAAGGC [A24C A31G]	0.0441
GAGACCGCAACTGAAAAGTTGTTCTCAGAATTGGATGGGTTGAATTTCTGCACGTAGAAGCAAAAGGC [A24C A31T]	0.0211

Variant	fraction ligated
GAGACCGCAACTGAAAAGTTGTTCTCAGAACTGGATGGGTTGAATTTCTGCACGTAGAAGCAAAAGGC [A24C A31C]	0.0126
GAGACCGCAACTGAAAAGTTGTTCTCAGTAATGGATGGGTTGAATTTCTGCACGTAGAAGCAAAAGGC [A24C A29T]	0.0449
GAGACCGCAACTGAAAAGTTGTTCTCAGGAATGGATGGGTTGAATTTCTGCACGTAGAAGCAAAAGGC [A24C A29G]	0.0302
GAGACCGCAACTGAAAAGTTGTTCTCAGCAATGGATGGGTTGAATTTCTGCACGTAGAAGCAAAAGGC [A24C A29C]	0.0282
GAGACCGCAACTGAAAAGTTGTGAGCAGAAATGGATGGGTTGAATTTCTGCACGTAGAAGCAAAAGGC [T23G T25G]	0.193
GAGACCGCAACTGAAAAGTTGTGACCAGAAATGGATGGGTTGAATTTCTGCACGTAGAAGCAAAAGGC [T23G T25C]	0.153
GAGACCGCAACTGAAAAGTTGTGAACAGAAATGGATGGGTTGAATTTCTGCACGTAGAAGCAAAAGGC [T23G T25A]	0.0923
GAGACCGCAACTGAAAAGTTGTGATCAGAAATTGATGGGTTGAATTTCTGCACGTAGAAGCAAAAGGC [T23G G33T]	0.556
GAGACCGCAACTGAAAAGTTGTGATCAGAAATCGATGGGTTGAATTTCTGCACGTAGAAGCAAAAGGC [T23G G33C]	0.73
GAGACCGCAACTGAAAAGTTGTGATCAGAAATAGATGGGTTGAATTTCTGCACGTAGAAGCAAAAGGC [T23G G33A]	0.801
GAGACCGCAACTGAAAAGTTGTGATCAGACATGGATGGGTTGAATTTCTGCACGTAGAAGCAAAAGGC [T23G A30C]	0.789
GAGACCGCAACTGAAAAGTTGTGATCAGAGATGGATGGGTTGAATTTCTGCACGTAGAAGCAAAAGGC [T23G A30G]	0.803
GAGACCGCAACTGAAAAGTTGTGATCAGATATGGATGGGTTGAATTTCTGCACGTAGAAGCAAAAGGC [T23G A30T]	0.806
GAGACCGCAACTGAAAAGTTGTGATCAGAAATGAATGGGTTGAATTTCTGCACGTAGAAGCAAAAGGC [T23G G34A]	0.0854
GAGACCGCAACTGAAAAGTTGTGATCAGAAATGTATGGGTTGAATTTCTGCACGTAGAAGCAAAAGGC [T23G G34T]	0.00441
GAGACCGCAACTGAAAAGTTGTGATCAGAAATGCATGGGTTGAATTTCTGCACGTAGAAGCAAAAGGC [T23G G34C]	0.00122
GAGACCGCAACTGAAAAGTTGTGATAAGAAATGGATGGGTTGAATTTCTGCACGTAGAAGCAAAAGGC [T23G C26A]	0.123
GAGACCGCAACTGAAAAGTTGTGATTAGAAATGGATGGGTTGAATTTCTGCACGTAGAAGCAAAAGGC [T23G C26T]	0.434
GAGACCGCAACTGAAAAGTTGTGATGAGAAATGGATGGGTTGAATTTCTGCACGTAGAAGCAAAAGGC [T23G C26G]	0.0528
GAGACCGCAACTGAAAAGTTGTTCTCTGAAATGGATGGGTTGAATTTCTGCACGTAGAAGCAAAAGGC [A24C A27T]	0.105
GAGACCGCAACTGAAAAGTTGTTCTCCGAAATGGATGGGTTGAATTTCTGCACGTAGAAGCAAAAGGC [A24C A27C]	0.056
GAGACCGCAACTGAAAAGTTGTTCTCGGAAATGGATGGGTTGAATTTCTGCACGTAGAAGCAAAAGGC [A24C A27G]	0.0468
GAGACCGCAACTGAAAAGTTGTGATCAGAAATGGATGGGTTTAATTTCTGCACGTAGAAGCAAAAGGC [T23G G42T]	0.0401
GAGACCGCAACTGAAAAGTTGTGATCAGAAATGGATGGGTTAAATTTCTGCACGTAGAAGCAAAAGGC [T23G G42A]	0.204
GAGACCGCAACTGAAAAGTTGTGATCAGAAATGGATGGGTTCAATTTCTGCACGTAGAAGCAAAAGGC [T23G G42C]	0.00862
